Experimental data from the supplement of paper PMC9732359.
± gives the uncertainty stated by the source.

Assay: protein stability index of a GFP-peptide fusion (yeast GPS) (PSI 1-4); higher = more stable; sorted into four equal gates, so the index is relative within each strain
Method in brief: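 Tiled 17-residue peptides from yeast proteins were fused downstream of GFP on a plasmid that also expresses Cherry, and the pooled library was carried in yeast. Mid-log cultures grown in leucine-free medium were sorted into four equal gates by GFP/Cherry fluorescence ratio. Plasmids from each gate were PCR-amplified and Illumina-sequenced, and reads were assigned to strains by barcodes. Each peptide's protein stability index is the sum, over gates, of the gate's read frequency multiplied by its gate number.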

Row | Sequence | protein stability index (doa10∆) | protein stability index (pdr5∆) | protein stability index (san1∆) | protein stability index (ubr1∆)
1 | YWTQYLGLFIHKISFSG [YJL039C/NUP192] | 1.99 ± 0.076 | 1.8 ± 0.058 | 1.59 ± 0.1 | 1.89 ± 0.05
2 | EIPTQIYRTTRQDGSYT [ARP9] | 2.94 ± 0.081 | 3.17 ± 0.086 | 2.93 ± 0.083 | 3.06 ± 0.059
3 | KLHEFYLLISKENKKRK [IRR1] | 2.96 ± 0.081 | 2.65 ± 0.066 | 2.89 ± 0.051 | 3.04 ± 0.067
4 | RQPSLHRLSILSHYAKI [RPO31] | 1.74 ± 0.077 | 2.1 ± 0.071 | 1.36 ± 0.12 | 2.13 ± 0.063
5 | LAVEDKPSPIDSGIGSN [CSL4] | 3.02 ± 0.069 | 3.27 ± 0.062 | 3.06 ± 0.052 | 3.08 ± 0.044
6 | KKQPSILVGGTLKDYQI [SNF2] | 2.31 ± 0.11 | 2.71 ± 0.099 | 2.35 ± 0.11 | 2.47 ± 0.083
7 | RADTMDFKTDVDEPMTS [YJL039C/NUP192] | 3.26 ± 0.087 | 3.28 ± 0.089 | 3.25 ± 0.11 | 3.3 ± 0.066
8 | DSNSEILNFLNQEDLFE [YML103C/NUP188] | 2.79 ± 0.12 | 2.86 ± 0.089 | 2.76 ± 0.049 | 3.14 ± 0.086
9 | LNLFSNVLKAPFIKSES [SIR4] | 1.67 ± 0.061 | 1.75 ± 0.087 | 1.26 ± 0.13 | 1.79 ± 0.056
10 | VQGGNAAPSAADIKAVV [RPP2B] | 3.01 ± 0.084 | 3.34 ± 0.07 | 2.88 ± 0.085 | 3.23 ± 0.075
11 | SGAITFVNETPRVIEPV [PRP8] | – | 1.96 ± 0.27 | – | 1.11 ± 0.045
12 | QENGTIFRGSLIGCIPY [YDL088C/ASM4] | 2.59 ± 0.052 | 2.57 ± 0.052 | 2.48 ± 0.061 | 2.5 ± 0.038
13 | MAPNTSRKQKVIKTLTV [RPL22B] | 2.1 ± 0.18 | 2 ± 0.088 | 2.6 ± 0.13 | 1.97 ± 0.093
14 | RVVYLKHLEDNTLLVTG [RPL6B] | 1.89 ± 0.29 | 1.12 ± 0.095 | 1.15 ± 0.2 | 1.16 ± 0.2
15 | TFLPPLLLKLASPHASV [ECM29] | 1.63 ± 0.039 | 1.8 ± 0.04 | 1.66 ± 0.061 | 1.41 ± 0.027
16 | CSFAVTKSSLNDLDYDL [YML103C/NUP188] | 3.04 ± 0.1 | 3.13 ± 0.091 | 3.01 ± 0.078 | 3.1 ± 0.055
17 | TNSPQISVTRQVVLGGT [SMC2] | 2.82 ± 0.078 | 3 ± 0.075 | 3.03 ± 0.064 | 2.67 ± 0.048
18 | LEYYAMLSKTKVYYFQG [RPL30] | 2.4 ± 0.096 | 3.08 ± 0.1 | 2.09 ± 0.079 | 2.89 ± 0.13
19 | VYREVCAACHSLDRVAW [CYT1] | 3.36 ± 0.26 | 3.04 ± 0.12 | 2.71 ± 0.17 | 2.86 ± 0.13
20 | REDEFGSIPSLTTQFVT [YDL088C/ASM4] | 3 ± 0.066 | 2.92 ± 0.058 | 3.06 ± 0.053 | 3.2 ± 0.067
21 | PATTSQMAKDVTTFLNW [CYT1] | 3.16 ± 0.12 | 3.02 ± 0.13 | 2.84 ± 0.15 | 3.31 ± 0.27
22 | KNLVKVLESRVNARDIP [CSN12] | – | 1.94 ± 0.19 | 2.03 ± 0.2 | 1.76 ± 0.16
23 | VEDGNILVFQVSMKANK [RPL25] | 2.58 ± 0.043 | 2.46 ± 0.047 | 2.5 ± 0.047 | 2.69 ± 0.037
24 | CLENARSQISEKDAKIN [SIR4] | 3.09 ± 0.078 | 3.23 ± 0.081 | 3.13 ± 0.066 | 2.98 ± 0.064
25 | CSRCGSVTRAGNIISSD [SIN4] | – | 3.33 ± 0.26 | – | 3.03 ± 0.22
26 | NSTLKKVESQETLNDTI [YCS4] | 2.12 ± 0.1 | 2.43 ± 0.092 | 2.37 ± 0.13 | 2.1 ± 0.11
27 | AEEIGVEHLLRDVRDQA [RPN8] | 3.2 ± 0.14 | – | 2.96 ± 0.15 | –

Row | Sequence | protein stability index (doa10∆) | protein stability index (pdr5∆) | protein stability index (san1∆) | protein stability index (ubr1∆)
28 | STRASTVPNLPTTMVTN [ISW2] | 1.92 ± 0.055 | 2.38 ± 0.056 | 2.35 ± 0.058 | 2.38 ± 0.047
29 | SLVNSYIIDSPQPSSIN [COB] | 1.51 ± 0.085 | 1.59 ± 0.08 | 1.64 ± 0.15 | 1.32 ± 0.081
30 | MSLVVQEQGSFQHILRL [RPS18A] | 2.95 ± 0.14 | 2.83 ± 0.12 | 2.65 ± 0.1 | 2.92 ± 0.1
31 | LNSMEKDRISHEVVQDD [PCI8] | 2.61 ± 0.079 | 2.69 ± 0.061 | 3.01 ± 0.067 | 2.41 ± 0.12
32 | MEKESVYNLALKCAERQ [NUT1] | – | 2.1 ± 0.26 | 2.91 ± 0.21 | –
33 | LDTQLNDLRVSLNEKNA [SMC1] | 3.03 ± 0.11 | 3.13 ± 0.082 | 3.41 ± 0.064 | 3.14 ± 0.09
34 | GTAIGAIGAQSIGEPGT [RPO31] | 3.12 ± 0.11 | 3.13 ± 0.092 | 2.61 ± 0.14 | 3.15 ± 0.059
35 | LVKIDDLSANQRETMKE [SMC1] | 3.29 ± 0.083 | 3.22 ± 0.091 | 3 ± 0.11 | 3.45 ± 0.089
36 | LESTIAETQGSKVVIDS [IRR1] | 2.9 ± 0.1 | 3.03 ± 0.14 | 3.06 ± 0.12 | 2.98 ± 0.12
37 | SLTTVWAEHLSDEVKRR [RPL3] | 2.87 ± 0.13 | 2.85 ± 0.18 | – | 3 ± 0.18
38 | PLVLLQQIPLLCYMAPM [POP3] | 1.72 ± 0.053 | 1.59 ± 0.061 | 1.85 ± 0.074 | 1.92 ± 0.054
39 | KRFMNTSQNPQRDAEIS [BRR2] | 3.04 ± 0.076 | 3.03 ± 0.085 | 3.12 ± 0.1 | 2.95 ± 0.059
40 | ETIIFDSELNRALFETK [RRI1] | 3.03 ± 0.14 | 2.66 ± 0.14 | 3.2 ± 0.062 | 3.35 ± 0.17
41 | SASLHTRSLKYGKLRNG [RRP4] | 1.58 ± 0.075 | 2.15 ± 0.11 | 1.08 ± 0.13 | 2.82 ± 0.16
42 | EVRAISVAKIRFPETMD [RPO21] | 3.08 ± 0.1 | 2.87 ± 0.087 | 2.73 ± 0.079 | 3.28 ± 0.044
43 | KNNILGSNVLKSGKTIV [RRP43] | 3.05 ± 0.039 | 3.11 ± 0.044 | 3.04 ± 0.043 | 3.076 ± 0.03
44 | LDNMTYSSVAGTVSRVN [RRP4] | 2.44 ± 0.049 | 2.52 ± 0.05 | 2.23 ± 0.051 | 2.21 ± 0.036
45 | VPCDRIEKSRLFSEKTI [SNF6] | 2.58 ± 0.11 | 2.78 ± 0.058 | 2.62 ± 0.096 | 2.2 ± 0.044
46 | GCGTVKRFNIGADPNYR [RPR2] | 3.15 ± 0.12 | 3.36 ± 0.092 | 3.33 ± 0.09 | 3.46 ± 0.068
47 | ESKSLLNLFSNVLKAPF [SIR4] | 2.39 ± 0.086 | 2.16 ± 0.13 | 1.56 ± 0.21 | 2.48 ± 0.077
48 | FKAMEDVIAWKNVLANS [ITC1] | – | 2.95 ± 0.16 | 3.55 ± 0.078 | 3.49 ± 0.16
49 | TTSRFSKQVTDYYQSIY [FAS2] | 2.77 ± 0.056 | 2.87 ± 0.071 | 2.47 ± 0.089 | 2.59 ± 0.05
50 | EMGKTDKSTKTAEAPTL [YOR098C/NUP1] | 3.1 ± 0.16 | 3.25 ± 0.15 | 2.89 ± 0.064 | 2.86 ± 0.14
51 | IKPKPLWSGKQILSVAI [RPO21] | 1.62 ± 0.056 | 1.53 ± 0.047 | 1.4 ± 0.073 | 1.62 ± 0.064
52 | AEKKVVRLTSRQRGRIA [RPL17A] | 2.88 ± 0.18 | 1.28 ± 0.074 | 1.45 ± 0.19 | 1.14 ± 0.093
53 | SNDFEEGSTIRYLAVTL [YMR129W/POM152] | 2.06 ± 0.05 | 2.28 ± 0.049 | 2.12 ± 0.062 | 2.26 ± 0.053
54 | NFEATKKSVLKQVQDFE [COR1] | 2.76 ± 0.13 | 2.39 ± 0.25 | 3.07 ± 0.15 | 2.91 ± 0.072
